B1: CPEB3 Ribozyme (parent)
chain: UAACAGGGGGCCACAGCAGAAGCGUUCACGUCGCAGCCCCUGUCAGAUUCUGGUGAAUCUGCGAAUUCUGCUGUAUAUCUC

The variants in the data set derive from B1. Description: self-cleavage, relative activity (ratio to wild type); higher = more cleavage; in vitro, sequencing. The procedure, abridged: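 Libraries of CPEB3 self-cleaving ribozyme mutants came from rounds of error-prone PCR and carried barcodes, which DNA sequencing matched to variants. In vitro transcription used T7 RNA polymerase at 37°C for 5 hours, with a further 15 min in DNase I before EDTA stopped the reaction; the ribozymes cleaved during both steps. The RNA was reverse transcribed with template switching and sequenced on Illumina. Relative activity is the cleaved/total read fraction of a variant divided by that of the unmutated ribozyme, averaged over three batches with at least 5 reads.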
Take G8A U26C: the self-cleavage was found to be 0.13.

C11G U67G: the self-cleavage was 0.2.

Take U69G U72A: the self-cleavage was found to be 0.35.

With G16C U67C, the self-cleavage is 0.42.

With G8U C40U, the self-cleavage came out at 0.11.

Consider A20G A28U, for which the self-cleavage was found to be 0.58.

For the variant A45U U60G, the self-cleavage is 0.68.

Turning to U69A A75C, the self-cleavage is 0.55.

In the case of G8U G36A, the self-cleavage was determined as 0.1.

In the case of A18U U51A, the self-cleavage was found to be 0.41.

Consider A56U, for which the self-cleavage came out at 0.74.

Take U54C U69A: the self-cleavage amounted to 0.57.

A18C A28G: the self-cleavage turned out to be 0.29.

As for C12G C29G, the self-cleavage turned out to be 0.24.

On to G8C C38U, for which the self-cleavage was 0.07.

With A20C A21U, the self-cleavage worked out at 0.2.

With A18G G52C, the self-cleavage turned out to be 0.94.

C29A C59U: the self-cleavage is 0.54.

Regarding G22C U80G, the self-cleavage is 0.27.

As to G46A A47U, the self-cleavage was determined as 0.24.

With G9U G36C, the self-cleavage was 0.07.

On to A18U A65U, for which the self-cleavage was 0.2.

Take U49C G70U: the self-cleavage was 0.2.

In the case of U43G U48C, the self-cleavage came out at 0.39.

As to A15G C68U, the self-cleavage is 0.67.

Turning to G52A U58G, the self-cleavage was determined as 0.34.

For the variant G6C U69C, the self-cleavage is 0.21.

For the variant A21U U72G, the self-cleavage is 0.17.

Take G36A U80C: the self-cleavage is 0.34.

As for A56G A64U, the self-cleavage worked out at 0.3.

Turning to C39A U48C, the self-cleavage was 0.12.

Turning to A35C C38A, the self-cleavage worked out at 0.2.

As for U51A G70A, the self-cleavage is 0.61.

On to A3U U41C, for which the self-cleavage stood at 1.05.

Regarding A15G U41A, the self-cleavage is 0.23.

Turning to G53C U60A, the self-cleavage was 0.56.

For the variant A47C G63A, the self-cleavage is 0.56.

C40A U72C: the self-cleavage is 0.37.

Consider U26C A57U, for which the self-cleavage was 0.31.

For U25G U41A, the self-cleavage was found to be 0.19.

For the variant G6A A47G, the self-cleavage was found to be 0.46.

As for G9A A13G, the self-cleavage is 0.3.

As for A5G C14U, the self-cleavage stood at 0.8.

In the case of U25C U48C, the self-cleavage amounted to 0.26.

As for A35U U48G, the self-cleavage was found to be 0.26.

Regarding C62U A65G, the self-cleavage came to 0.27.

With G6U U76C, the self-cleavage amounted to 0.15.

Take C17G U25C: the self-cleavage worked out at 0.11.

A65G G70A: the self-cleavage was determined as 0.32.

On to A20G G22A, for which the self-cleavage was 0.46.

In the case of G8A U51C, the self-cleavage was determined as 0.21.

On to C23A U43C, for which the self-cleavage came out at 0.23.

Take A64C A77U: the self-cleavage was found to be 0.25.

For the variant A15G G24A, the self-cleavage was determined as 0.39.

Consider U1A C11U, for which the self-cleavage amounted to 0.46.

On to A2U A75U, for which the self-cleavage was found to be 1.09.

In the case of A18G U25G, the self-cleavage stood at 0.17.

Regarding G22A A35G, the self-cleavage came to 0.68.

For U25A G61A, the self-cleavage was 0.23.

In the case of G36C U58C, the self-cleavage amounted to 0.14.

With G42A U74C, the self-cleavage amounted to 0.64.

On to A21G C39U, for which the self-cleavage was determined as 0.3.

For the variant C40U U54A, the self-cleavage was determined as 1.08.

Consider G70A U78A, for which the self-cleavage was 0.43.

As to U74G A75G, the self-cleavage was 1.26.

A64G U78A: the self-cleavage amounted to 1.07.

With U51G A65G, the self-cleavage came to 0.72.

Turning to A28G A65C, the self-cleavage is 0.21.

For G24A G63A, the self-cleavage was determined as 0.37.

For the variant G42A G70C, the self-cleavage turned out to be 0.13.

Turning to G10C C71A, the self-cleavage is 0.12.

With A35C A45C, the self-cleavage was 0.31.

Turning to C37A U48C, the self-cleavage turned out to be 0.41.

Consider U26G A45U, for which the self-cleavage amounted to 0.17.

Regarding A20C C29U, the self-cleavage is 0.12.

With G10A A20G, the self-cleavage was 0.3.

As to A15C U48C, the self-cleavage came out at 0.47.

Regarding C32A U41C, the self-cleavage worked out at 0.36.

With G24A A47U, the self-cleavage is 0.21.

In the case of C11U U60C, the self-cleavage came to 0.14.

As for U41G A64G, the self-cleavage amounted to 0.26.

As to U48C G52A, the self-cleavage was determined as 0.87.

For the variant G16A A21U, the self-cleavage stood at 0.2.

Turning to U54C U76A, the self-cleavage was determined as 1.17.

Take A3G C12U: the self-cleavage stood at 1.22.

Turning to G46A G63C, the self-cleavage was 0.62.

Regarding C32A U76C, the self-cleavage came to 0.25.

With A47U C50A, the self-cleavage is 0.23.

For G6A C79U, the self-cleavage stood at 0.55.

For A3G C62A, the self-cleavage turned out to be 0.59.

In the case of U54C G70A, the self-cleavage stood at 0.43.

With G10C C27U, the self-cleavage amounted to 0.15.

For A35G C39G, the self-cleavage stood at 0.59.

As to A28C A45G, the self-cleavage stood at 0.39.

Turning to G6A A77U, the self-cleavage came to 0.34.

Take C14A G63A: the self-cleavage amounted to 0.93.

For G7A A56G, the self-cleavage came to 0.15.

As to A47G U76A, the self-cleavage came out at 0.98.

Consider G6A A20G, for which the self-cleavage was 0.48.

As to C32U U66A, the self-cleavage was determined as 0.22.

As for G8U G73C, the self-cleavage is 0.5.

Regarding U41A U51A, the self-cleavage is 0.36.

Consider A21U C44A, for which the self-cleavage stood at 0.11.

On to U69C G73U, for which the self-cleavage amounted to 0.88.

Consider G9C A75G, for which the self-cleavage stood at 0.17.

As to A5G A64U, the self-cleavage was 0.35.

With A2U U54C, the self-cleavage came out at 1.13.

With G53A U69A, the self-cleavage stood at 0.67.

Consider G10C U49G, for which the self-cleavage is 0.17.

Regarding U41A C81G, the self-cleavage was found to be 0.25.

For A3U U51A, the self-cleavage is 1.02.

Turning to U49A U78G, the self-cleavage stood at 0.6.

With C37G A77U, the self-cleavage was 0.61.

In the case of C29U U49C, the self-cleavage worked out at 0.39.

As to U41A A56U, the self-cleavage was 0.29.

Turning to A18U C62G, the self-cleavage was found to be 0.27.

As for U41A U69A, the self-cleavage was 0.14.

In the case of C12U A77G, the self-cleavage was determined as 1.19.

In the case of C62A U69C, the self-cleavage was found to be 0.34.

With A20G A47G, the self-cleavage was determined as 0.75.

Consider G10U A64G, for which the self-cleavage amounted to 0.07.

Turning to A15U A18G, the self-cleavage was found to be 0.29.

For the variant U51A U72C, the self-cleavage is 1.15.

With U69A U78C, the self-cleavage turned out to be 0.75.

Regarding U43A, the self-cleavage is 1.17.

U31G C34U: the self-cleavage came to 0.18.

Turning to U48C A64C, the self-cleavage was found to be 0.18.

In the case of G19U G36A, the self-cleavage was found to be 0.18.

As to C32U A65U, the self-cleavage stood at 0.13.

For C17U U25C, the self-cleavage is 0.25.

For the variant U31A U43A, the self-cleavage turned out to be 0.7.

G9C A28G: the self-cleavage worked out at 0.07.

Turning to A5G U43G, the self-cleavage is 0.3.

U51G G63U: the self-cleavage amounted to 1.1.

As for C14A U49C, the self-cleavage stood at 0.23.

For U48C U58C, the self-cleavage came out at 0.34.

In the case of A3G U54G, the self-cleavage stood at 0.82.

With A21G C38U, the self-cleavage amounted to 0.57.

As for A18G A77C, the self-cleavage amounted to 0.39.

As for G70C U80C, the self-cleavage came to 0.22.

Regarding G22A U60A, the self-cleavage came to 0.08.

As for U41A A77C, the self-cleavage was determined as 0.15.

On to U41A A77U, for which the self-cleavage was determined as 0.31.

For the variant U54A A65U, the self-cleavage was determined as 0.26.

Consider C34G A56G, for which the self-cleavage was determined as 0.18.

As for A20U C23A, the self-cleavage worked out at 0.22.

For the variant A2C C39A, the self-cleavage came to 0.49.

As for A13U C27U, the self-cleavage worked out at 0.24.

Take A56U U60C: the self-cleavage turned out to be 0.27.

For the variant G19A C62U, the self-cleavage came to 0.36.

Turning to U1C A21G, the self-cleavage was determined as 0.24.

Take C12U: the self-cleavage stood at 1.25.

Consider A15G G22U, for which the self-cleavage came out at 0.46.

Turning to A15G A57U, the self-cleavage was found to be 0.56.

Turning to U25A A77C, the self-cleavage is 0.19.

On to A20G C39U, for which the self-cleavage stood at 0.63.

Take A13G U31G: the self-cleavage came out at 0.51.

As for G33C A56G, the self-cleavage came out at 0.12.

As for G9A A56C, the self-cleavage turned out to be 0.24.

In the case of U74A U80C, the self-cleavage is 1.24.

In the case of C27A U51A, the self-cleavage worked out at 0.38.

Regarding C12A A13U, the self-cleavage worked out at 1.25.

C50U U51A: the self-cleavage came to 1.17.

Turning to U1A A13G, the self-cleavage came to 0.8.

On to A75U U80G, for which the self-cleavage is 1.26.

Turning to A5G G63C, the self-cleavage is 0.5.

For the variant G7A U48A, the self-cleavage is 0.31.

Source of the values: the RNAGym collection of RNA variant scans (doi:10.1093/nar/gkz1192).
